Measurements as given in article PMC3078060 (Molecular Biology of the Cell, 2011).
Values belong to the binder of their own block, whether it stands above or below them.

Assays:
Assay in all cases: pull-down
His6-Vps3 = target: T1, His6-Vps3 (S. cerevisiae, UniProt P23643 1-1011)
T1 sequence: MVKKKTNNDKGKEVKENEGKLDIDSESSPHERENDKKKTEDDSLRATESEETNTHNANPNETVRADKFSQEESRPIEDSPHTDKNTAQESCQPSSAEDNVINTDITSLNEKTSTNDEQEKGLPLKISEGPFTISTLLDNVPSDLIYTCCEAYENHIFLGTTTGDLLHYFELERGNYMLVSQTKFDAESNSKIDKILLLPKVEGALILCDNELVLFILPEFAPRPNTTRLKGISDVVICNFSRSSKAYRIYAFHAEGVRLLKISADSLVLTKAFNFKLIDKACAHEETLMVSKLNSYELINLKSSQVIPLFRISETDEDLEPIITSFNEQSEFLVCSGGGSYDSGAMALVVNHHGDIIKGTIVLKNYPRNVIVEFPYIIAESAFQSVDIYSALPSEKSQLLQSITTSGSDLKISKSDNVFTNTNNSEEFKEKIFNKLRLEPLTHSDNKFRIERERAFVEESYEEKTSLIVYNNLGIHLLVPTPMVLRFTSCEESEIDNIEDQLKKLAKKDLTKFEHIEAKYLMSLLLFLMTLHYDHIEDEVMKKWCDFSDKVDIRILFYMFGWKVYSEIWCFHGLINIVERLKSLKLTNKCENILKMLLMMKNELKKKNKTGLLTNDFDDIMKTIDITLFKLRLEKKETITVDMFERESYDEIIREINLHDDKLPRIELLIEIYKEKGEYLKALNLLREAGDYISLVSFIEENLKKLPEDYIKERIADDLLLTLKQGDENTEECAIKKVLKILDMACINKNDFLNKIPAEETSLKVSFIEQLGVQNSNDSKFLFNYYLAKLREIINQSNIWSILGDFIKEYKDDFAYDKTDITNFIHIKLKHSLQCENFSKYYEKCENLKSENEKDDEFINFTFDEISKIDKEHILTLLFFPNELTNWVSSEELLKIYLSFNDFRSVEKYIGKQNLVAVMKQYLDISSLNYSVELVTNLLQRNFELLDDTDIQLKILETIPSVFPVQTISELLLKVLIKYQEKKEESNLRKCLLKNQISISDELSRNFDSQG

His6-Vps41 = target: T2, His6-Vps41 (S. cerevisiae, UniProt P38959 1-992)
T2 sequence: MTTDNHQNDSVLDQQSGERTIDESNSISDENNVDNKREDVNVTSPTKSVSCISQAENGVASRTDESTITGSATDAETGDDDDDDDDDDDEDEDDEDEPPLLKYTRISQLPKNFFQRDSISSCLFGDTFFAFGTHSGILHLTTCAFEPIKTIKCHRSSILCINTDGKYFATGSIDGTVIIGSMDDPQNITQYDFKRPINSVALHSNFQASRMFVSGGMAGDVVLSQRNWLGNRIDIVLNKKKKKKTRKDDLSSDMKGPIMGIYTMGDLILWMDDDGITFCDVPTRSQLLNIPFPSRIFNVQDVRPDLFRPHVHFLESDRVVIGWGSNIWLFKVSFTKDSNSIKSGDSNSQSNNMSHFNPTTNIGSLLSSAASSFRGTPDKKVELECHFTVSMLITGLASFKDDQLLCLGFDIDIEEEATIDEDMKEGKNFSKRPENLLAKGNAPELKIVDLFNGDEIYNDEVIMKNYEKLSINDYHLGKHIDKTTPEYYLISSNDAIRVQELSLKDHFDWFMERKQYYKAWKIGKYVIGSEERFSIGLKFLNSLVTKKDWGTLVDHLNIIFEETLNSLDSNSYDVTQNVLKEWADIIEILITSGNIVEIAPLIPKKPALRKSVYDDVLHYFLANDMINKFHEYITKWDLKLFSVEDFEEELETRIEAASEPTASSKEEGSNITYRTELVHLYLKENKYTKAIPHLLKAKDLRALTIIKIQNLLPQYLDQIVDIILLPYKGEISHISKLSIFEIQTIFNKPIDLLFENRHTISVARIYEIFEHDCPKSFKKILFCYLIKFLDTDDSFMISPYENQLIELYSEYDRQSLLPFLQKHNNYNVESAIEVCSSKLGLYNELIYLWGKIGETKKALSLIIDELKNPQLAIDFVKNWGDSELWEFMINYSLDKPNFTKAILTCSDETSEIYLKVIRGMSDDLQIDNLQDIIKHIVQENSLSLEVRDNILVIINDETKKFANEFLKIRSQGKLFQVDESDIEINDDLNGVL

His6-Vps39–860Δ = target: T3, His6-Vps39–860Δ (S. cerevisiae, UniProt Q07468 1-860)
T3 sequence: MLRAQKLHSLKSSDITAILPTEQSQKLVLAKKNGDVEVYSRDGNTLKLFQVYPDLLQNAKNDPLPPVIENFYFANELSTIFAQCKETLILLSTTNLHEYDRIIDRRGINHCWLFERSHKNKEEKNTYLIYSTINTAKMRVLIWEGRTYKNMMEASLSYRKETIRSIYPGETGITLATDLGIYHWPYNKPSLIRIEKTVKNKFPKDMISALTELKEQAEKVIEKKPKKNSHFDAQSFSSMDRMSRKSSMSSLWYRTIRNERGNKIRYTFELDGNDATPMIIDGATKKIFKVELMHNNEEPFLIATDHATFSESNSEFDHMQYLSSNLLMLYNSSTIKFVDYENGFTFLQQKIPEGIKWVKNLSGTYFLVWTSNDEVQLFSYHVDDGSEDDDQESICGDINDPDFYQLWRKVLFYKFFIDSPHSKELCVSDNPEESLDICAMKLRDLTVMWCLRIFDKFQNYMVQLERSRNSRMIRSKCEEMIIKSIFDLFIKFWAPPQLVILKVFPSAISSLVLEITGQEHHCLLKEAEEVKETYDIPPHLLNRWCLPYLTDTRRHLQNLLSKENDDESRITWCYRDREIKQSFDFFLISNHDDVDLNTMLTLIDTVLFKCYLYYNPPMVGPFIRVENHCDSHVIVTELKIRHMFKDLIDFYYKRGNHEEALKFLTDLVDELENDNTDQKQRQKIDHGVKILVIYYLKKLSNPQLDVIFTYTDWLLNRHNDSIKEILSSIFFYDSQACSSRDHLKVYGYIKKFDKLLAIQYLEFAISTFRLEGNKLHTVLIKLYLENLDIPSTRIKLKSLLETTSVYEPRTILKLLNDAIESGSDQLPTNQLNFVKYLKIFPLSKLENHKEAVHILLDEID

- binding result (His6-Vps3): binds
B1: GST-Vps21 (natural protein)
chain: MNTSVTSIKLVLLGEAAVGKSSIVLRFVSNDFAENKEPTIGAAFLTQRVTINEHTVKFEIWDTAGQERFASLAPMYYRNAQAALVVYDVTKPQSFIKARHWVKELHEQASKDIIIALVGNKIDMLQEGGERKVAREEGEKLAEEKGLLFFETSAKTGENVNDVFLGIGEKIPLKTAEEQNSASNERESNNQRVDLNAANDGTSANSACSC

- binding result (His6-Vps41): binds
- binding result (His6-Vps39–860Δ): binds
B2: GST-Ypt7 (natural protein)
chain: MSSRKKNILKVIILGDSGVGKTSLMHRYVNDKYSQQYKATIGADFLTKEVTVDGDKVATMQVWDTAGQERFQSLGVAFYRGADCCVLVYDVTNASSFENIKSWRDEFLVHANVNSPETFPFVILGNKIDAEESKKIVSEKSAQELAKSLGDIPLFLTSAKNAINVDTAFEEIARSALQQNQADTEAFEDDYNDAINIRLDGENNSCSC
